The values below come from doi:10.1101/2023.05.10.540161 (bioRxiv, 2023).

This series deals with the molecule itself. Put plainly: crystal structure; His6-CENP-E 2452-2598 at 11 mg/ml, crystallized in 0.2 M potassium citrate tribasic monohydrate, 20% w/v PEG 3350 pH 8.3, room temperature; a CENP-E dimer in the asymmetric unit.

Usually stoichiometry N stands for the number of molecules, sites or subunits per partner or assembly.

B1: His6-CENP-E_(2452-2598) (domain or fragment, human, UniProt Q02224-1 2452-2598, looked up)
chain: PYKEEIEDLKMKLVKIDLEKMKNAKEFEKEISATKATVEYQKEVIRLLRENLRRSQQAQDTSVISEHTDPQPSNKPLTCGGGSGIVQNTKALILKSEHIRLEKEISKLKQQNEQLIKQKNELLSNNQHLSNEVKTWKERTLKREAHK
notes: CENP-E (kinesin-7), human, residues 2452-2598, from CENP-E transcript variant 1 (NM_001813.2); in the crystal only K2454 to S2506 were seen (likely C-terminal degradation during crystallization); Cloned into pET3aTr; also called minimal corona targeting domain; corona-targeting domain of CENP-E; source: E. coli BL21, purified as previously described (Legal et al., 2020)
B1: the “stoichiometry N” value is 2.
